# Results taken from article PMC10698503, “Phosphatase specificity principles uncovered by MRBLE:Dephos and global substrate identification” (Molecular Systems Biology, 2023).
# Biological target: His-PP1γ (UniProt P36873)
# Test: ITC; peptide (approximately 450 µM, syringe) titrated into PP1γ (~35 µM, cell); 25°C; 50 mM sodium phosphate, 150 mM NaCl, 0.5 mM TCEP, pH 7.5; single-site model
# Sequence of His-PP1γ (P36873 whole entry): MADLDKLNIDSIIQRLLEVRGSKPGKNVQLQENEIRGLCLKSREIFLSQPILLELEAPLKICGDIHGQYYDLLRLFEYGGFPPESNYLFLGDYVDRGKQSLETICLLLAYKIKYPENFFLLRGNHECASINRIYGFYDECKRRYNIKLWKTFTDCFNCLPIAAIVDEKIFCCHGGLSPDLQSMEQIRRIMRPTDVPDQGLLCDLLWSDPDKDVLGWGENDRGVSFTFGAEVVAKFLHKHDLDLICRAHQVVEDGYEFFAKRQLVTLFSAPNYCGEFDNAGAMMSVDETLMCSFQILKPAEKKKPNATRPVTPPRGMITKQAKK
row,Kd,Substance
1,7.24 µM,Sororin 76-96 pS79 peptide PRR(pS)…
2,4.51 µM,Nipp1 197-209 pT202 peptide AKNSRV(pT)FSEDDEIW
3,3.46 µM,Sororin 76-96 pS83 peptide PRRSPRI(pS)…
4,1.73 µM,KNL1 1441-1455 pS1448 peptide KLNSKRV(pS)FKLPKDQW
